Experimental data published in patent US11703510B2, “Methods and products for in vivo enzyme profiling” (Massachusetts Institute of Technology, priority 2009, dated 2023).
Square brackets hold non-standard residues; d marks the D form. Ends that are not written are not given here. fluorescein = fluorescein label at the N-terminus

Assay: Optimization of peptide reporters for LC/MS detection
Conditions: compared with other peptides of the same proteolytic-product group with longer or less hydrophilic caps; FIG. 8B
Excerpt: A series of peptides (A1-A14) of different sequence were investigated to determine optimal sequence length and charge density that would enable facile detection via LC/MS. Three representative proteolytic products, sequences GGVVVLS (SEQ ID NO: 19), GGPVG (SEQ ID NO: 13), and GGdFPipR (SEQ ID NO: 17) were selected and appended with peptide caps of differing length and charge density (FIG. 8A). The sequences were then detected via LC/MS. […] A hydrophilic molecule is a molecule that can transiently hydrogen-bond with water and is, thus, soluble in water and, in some embodiments, in other polar solvents. Hydrophilicity of peptides can be modulated according to methods well known in the art. In some embodiments, removal of the fluorescein tag will increase the hydrophilicity of the peptides reported in this disclosure. In some embodiments, modification of the sequences to contain positively charged residues (Histidine, Lysine, and Arginine) and/or negatively charged residues (glutamic acid and aspartic acid) will increase the hydrophilicity. […] Of the tested cap sequences Fl-dR-dS-dR (SEQ ID NO: 20) and Fl-dR-G-dS-dR (SEQ ID NO: 21) were determined to be advantageous. Accordingly, for non-fluorescent detection, the cap sequences dR-dS-dR (SEQ ID NO: 35) and dR-G-dS-dR (SEQ ID NO: 36) were determined to be advantageous. […]

Row | Substance | detection via LC/MS (normalized relative intensities of the peptide reporters)
1 | Fl-dR-G-dS-dR (fluorescein-[dR]G[dS][dR]) | advantageous
2 | Fl-dR-dS-dR (fluorescein-[dR]-[dS]-[dR]) | advantageous
